Results published in paper PMC12513983, “Backbone and sidechain ^1H, ^15N and ^13C resonance assignments of a multidrug efflux membrane protein using solution and solid-state NMR” (Biomolecular Nmr Assignments, 2025).

Molecular target: the molecule itself
Assay: solid-state NMR (magic-angle spinning, 13C-detected resonance assignment); S64V-EmrE in POPC proteoliposomes, 25:1 lipid/EmrE monomer, pH 5.8; 2D NCA shows separate peaks for chain A and chain B

B1: S64V-EmrE (natural protein, E. coli, UniProt P23895 1-110, looked up)
chain: MNPYIYLGGAILAEVIGTTLMKFSEGFTRLWPSVGTIICYCASFWLLAQTLAYIPTGIAYAIWVGVGIVLISLLSWGFFGQRLDLPAIIGMMLICAGVLIINLLSRSTPH
notes: also called EmrE mutant S64V; EmrE S64V
Question: Does B1 bind?
Answer: binds
